Assay results: PMC4303316 (Biochemistry, 2014)
No end group written: not given here.

T1: EhPAK4 PBD, tag removed (crystallographic construct) (Entamoeba histolytica (strain HM-1:IMSS), UniProt C4LSU1 12-78)
T1 sequence (looked up): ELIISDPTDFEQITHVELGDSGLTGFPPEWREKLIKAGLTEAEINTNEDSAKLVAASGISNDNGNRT

B1: EhRacC^Q65L (GTPase-deficient EhRacC mutant, GTP-bound) (enzyme, Entamoeba histolytica (strain HM-1:IMSS), UniProt Q24816 1-182, looked up)
chain: MSEKPTSIKLVVVGDGAVGKTCLLISYSIRKFPEDYIPTVFDNYVVSLTAGTRQIQLALWDTAGLEEYDQLRPLSYSSASIFLICFSVTSSVSYDNVITKWHPEVIHFAPKVPIILVGTKLDTRNDPAIVKRLTEQGMTVINTAKGEELKNRIKAVKYIECSAKTSENLKTVFDEAVKTVLM
B2: His6-EhPAK4 PBD (p21 binding domain of Entamoeba histolytica p21-activated kinase 4) (domain or fragment, Entamoeba histolytica (strain HM-1:IMSS), UniProt C4LSU1 12-78, looked up)
chain: T1 sequence (looked up)
B3: His6-EhPAK5 PBD (p21 binding domain of Entamoeba histolytica p21-activated kinase 5) (domain or fragment, Entamoeba histolytica (strain HM-1:IMSS), UniProt C4MBQ2 105-161, looked up)
chain: His6-DISEPTDYHHLTHVAYEEGGFVGIPYEWENVFLACGITREEIKSNKEDAIKVLEFTQ

How the values were obtained:
[1] = target: T1, EhPAK4 PBD, tag removed …; assay: SEC
[2] = target: B1; assay: SPR

Binder	stoichiometry N [1]	Kd [2] [µM]
B1	1 EhRacC:EhPAK4	–
B2	–	0.17 ± 0.03
B3	–	1.9 ± 0.2
